We go through 47 sequences from the NTF2 design screens of Basanta et al. (2020).

The nature of this data set: protease stability score; higher = more stable; yeast display proteolysis, trypsin and chymotrypsin.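 Further: log10 excess protease needed over predicted unfolded state with 0 meaning unfolded.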
As for “DEEAQKQAEHLIRNLEQGNEDQIERLADPNARFQYGNKEINGREEMSTWVRRYKKQARLEIKSVSADAQGDKITVDVHFVIDINGRPSTMRVNVVMSIDNGSINHMVFEIDEEQEKELNK”, the protease stability score was found to be 0.202.
Turning to “DEEAQKQFEEFLDVLETGDPKRLQDNMDEDARVVIGDKTITGREEAAKEWHKIRQEISVEIKHVHMEAQGDKLNATLDVVWNVNGRPHRFKFVIIMDFHNGRIKQIEIRMDERHLKKLRT”, the protease stability score stood at 0.499.
Sequence “DEEAQKRAEELIRILQTGDPDKLMEMFDKDAHATIGDQTVRGREDMRRRQKELKETMDVKLDITDVKVTGEKIDIRIKATFNYNGQPAEDTIVFIIQQHNGRVQRFEVRIDEDVLRQLKK” gave a protease stability score of 0.184.
As to “DEEAQKRAQTFFHILEHGDPKKLSKLFDKDAKFVVGEQRINGMQQYEQWFRDVYKKIRVTMKLVSVHVTGNKIDIKAKVEWHVNGRPLTFDLDIKINFHNGKMKEAVFHVDSDFLRKLKR”, the protease stability score was 0.63.
The value for “DEEAQKTAEDFLRAFQDGNHEQLLKLMDKDAQAQYGDQRLHGREKLRQHIYELLKNIRLEYSIDDVKVDGNNVRIHMQYEAEVNGQPVKDKAKVDIVFHNGKIKTFMVHFSEEYVQTVRS” was 0.903; that for “DEEAQRLLEKAMKALEQNNPQQFVNLLDPNATMIVGDKVYHGRESARKALDDIRSTMRVEVKDVKASAQGDKVQARMRVILDHNGKPSDRTQNITVRVHNGKMTSVELKTDT” was 0.88; that for “DEEAREILRRFFTALNTNDEDQLVELVDKDVKIQVGDKEIHGREELKEHQVESYRRSRVDFRVTDIKASGDKVTAKIVVSRESDGQPRKTTQRMEFRFENGHMKHVHEDSDG” was 0.064.
In turn, “DEEARKEIKKAARAYKTGDWQELVHQMDEDVKVEYGDHKIDGHEQVQKWVDENRKQLTMSVKSLSVELSGNTASVDMKHDARHNGRPRTQTAHIEIQAHNGRLKRVKIEYTQ” registered a protease stability score of -0.178.
As for “DEEARKLVHRILEAWKHGDEEHFKEQFDPNVDVDVGDKRYHGRHTIATRVQRELDEIDIRIEVHHITVEGDRADMDATVVLNINGKPVHVRVTWVFQITNGVAVYMQLRVSEDQRREQES”, the figure is 1.15; as for “DEEARNVFEEILKAIRHGDPDHAKNLADPNARIRVGDKKVDGMEQWATEMHHNWQEIRIHMRITSVDHQGEKVRLHLSRTSNHNGRPRKADIDLEMVATNGKLKSQKHSQKK”, 0.2.
In turn, “DEEARRVWHKLMDALRTGDPEKFRNNADPNARIQYGNETIHGMRDNARTVMTMLHRLDVEWEIKDVKVRPNRIDVIYVLRVHIDGKPYQVHIQADATFHNGKLQSIRKRVDEDEQRKLDR” returned a protease stability score of 0.379.
Turning to “DEEASKKIKTLVQILNTGDPDKAVKLFDPNARFQVGDKEISGREQFKEVLKKLKHKMRNDIKVKHVEVNNGHANAHAVMTVQVNGQPDHFTFIMRIQWHNGVIEHREVQMDEDELRRYNS”, the protease stability score amounted to 0.339.
Consider “DEEASKQLEEYLRALQTGDSHRVQQLLDPNAKARVGDHTYHGHKEILDWLNKLNEKMRFSIERLSVSVRGDQVEFSFKFDATFNGRPFHASQTMQINVHNGRLKKLTIQLDPEQLDTQRS”, for which the protease stability score was -0.088.
For the sequence “DEEASKRFEKFQHLLRDGNEDRVQKLVDPNVKFDLGSTSLHGMEEVARTLVQRYRSIRIRQEIDTYEVKGDTVRFKQKVQWNINGQPFSDHITFEAHQTNGKFSHVVIRIDPQLLEELRK”, the protease stability score stood at 0.503.
As for “DEEATKELREWLHNRTKNNEEELHKYADPNAKFVIGDKTYHGMEEAVESQVHKDKHMNIHIESIHMDADGEHVRASEVVTFEVNGKPFRYSFRYNVTMSNGRLKSQSVRVDERDEEQEKQ”, the protease stability score is -0.325.
With “DEEATKNAERLMRALNTNNEDEVLEMVDKNATMQYGDKTYHGREEISQAVDERRKEMRVHLRRVTVNAQGDKLDIKANMEVDHNGRPIKVNLRIEAKAHNGRITDIKIETDPELTRQRRT”, the protease stability score was 0.539.
For “DEEAVEIAHEVNKALNENDEHRLRELFDPNAKIQYGDNVIKGSDNLVKDIRRKSKRMRVRFDVKSIDNQGDKVEIDANYRQTHDGEPRTRKVDAKLRVENGRIKHFSARFTP”, the protease stability score was -0.044.
“DEEAVKKMMEEWHKALESKNDDQFRKIYKPNVEWVNGDTKRQGQEDVVKMLQKVQKDGAEFQVRDAKVEGDRARMVYDLNVGDKTATFTVEMDAEGGRVDRVQVEIDEKAKKVLTEG” displayed a protease stability score of 0.294.
For the sequence “DEEAVKRANEMVEAWEHGDESRFMKLVDPNAQVRVGDKEVHGKEDMNRSIQEESRQLRVHRRVESVESQGNEVKIDLVFTQNVNGQPIQQRVDVVITFRNGKAVDIQLDIPEDQQQQHRR”, the protease stability score was -0.131.
As for “DEEAVKRVEHFMKNIREGNEQKAREYADKNATIHVGDKTVHGREDLERWVRQVKEEQRMDVRSFHATADNGNVDVKVTAEIEHNGQPRHHHYTAQFNISNGKIQSVTVDDHP”, the protease stability score was -0.099.
On to “DEEAVKTLEHMFEAVRDGNPDEVKKQVDPNVKIEIGDKTYKGKDQWAQDVETKKDEMRFTYHSIEFKNEPNRVKISIDRTETHNGQPRRHHVDMEARVHNGVIVRMKAKESG”, for which the protease stability score was -0.124.
In the case of “DEEAVNIHKTILEAEQSGDPDKFRQNVDPNVRYRYGDKEIHGREQAAERVKEKRDQARFQFDSIHIKVHGDKARAHFDFVVDHNGNPHRMSFTVVFNAHGDKLEFEIIKFDPRMKKELDS”, the protease stability score was 0.198.
Consider “DEEAVNLINRLLEARKYNDPDSMKRLADENAQFVIGDKEVKGMETYARHVVQTMSRWRIDIKSVHHQSRGSKAEVDVRAKVNVNGRPDTLSITYRAHVTNGRIKELEVRFDPDQHRKLTS”, for which the protease stability score stood at 0.019.
“DEEAVRHYHEMVREEETGNEDEAMKYFDPNATVRIGDKTVKGKDSIRKWVRDRRDEMRVEIHQLNVHVSNGQIDVSVDFTKEHNGRPQTMQQKVRVTATNGKIKKVNNHDDG” came in with a protease stability score of -0.261.
The value for “DEEAYRLFSEMEKARKDNDEEKLRELADEDVRFEVGDSVIKGMTRWATRVVQTAREQRFSYDIKRWHIEGDKVVVHREVRESHNGQPRSRTVVYRAHVDNGRVKSVTVEDTG” was 0.158.
The value for “DEEDADRILKLLKKNNFEELARNADPNVHVRIGDTRIHGREEVTSHMKRLTDRIDHVDWRSMSVTGDRVVVRAVYTVNGDRIDFEIEIQFHNGRVVSVRFQARDEDDKHKYRKAEK” was 0.428; that for “DEEDAEDVVRKVNKILRDGDWEKFVNLMDKNAHARIGDQTYSGRSAAEDIARDVHRQVDHVEIKRVEVQGNTVHIDMVVEHNGREEKRVMDLIITNGRLRMVEYQHG” was -0.107.
Take “DEEDAEKILRTAAKAVENGDHKKLVDLGKDGVEYQLADEKAHGPEVMKKVLDYQRKLGVRVELKEVHHEGNKVVTVLVYYHGNTKLEVQIHATADGGKIDRVEVKVPETLKKQLKHG”: the protease stability score was determined as 0.137.
On to “DEEDAHEQVHRIVKALETGDPDQVVNQADENVRIHVGEKTVHGQEKVREFVEEYNEQVDDVNVRHVSLDGNKATVTIDIDVNGNKRRVHFRFQFDNGRVQTIRVDTS”, for which the protease stability score came to 0.719.
Turning to “DEEDAKNAVRAVEALVTGDPDKMSKLFDKHASVEVGDKRVRGREEIRELAEQLEREMRLRVEIKHVQIQGDKVDVKFDAQRHHNGRPDDNKQTMHLTAHDGRVKNMSITSNG”, the protease stability score is -0.376.
Sequence “DEEDAKRVEEMLEALRTGDWKKATDMADPDARFQIGDKRYHGMHQVAREWKNQYDQMRIEINVKEWNIHNGRVDLKFEQKNDHNGKPDNFRASATFQFHNGQLVEAQYQRDS” displayed a protease stability score of 0.634.
As for “DEEDAKVLKQVLENVESGDSKSAETLLDKDVKFVIGDKVLHGRTQYVDRVRRETKRMRVKRQVQHYEVNNGRVHMTIDIQYDIDGKPLRDQITLTAEFHNGRMQSLEVKMDRDFKRKVDK”, the figure is 0.313.
As for “DEEDANDMRHVWEVLDTGDEERFLQMVDPNVKVVIGDKEYHGRENLRKFLQDQKREMSERIKSIRVHDHNGRIKINAHATNQQNGQPHSFNIDAEAELHNGKITHLNVQTDG”, the protease stability score is 2.17.
Consider “DEEDANNVAEQMMEIVERGDEERASELADPNAKFNIGDKKYEGRENLQKAIRHFRQRADHLEIKSLSVTPGHLKMRFVVKHNGQRNEVVIHVKAHNGKIVEIQVRNS”, for which the protease stability score turned out to be 0.15.
For “DEEDANRHVREFWKNVETGNEDDLRDLADPNARLFVGDKKYRGRSEMAKAFKEIRKNVDHFELKSVQEKGDKVKVVAVWNHNGRNVEMVVIFVAHNGRIKEVQVRHK”, the protease stability score amounted to 0.233.
The value for “DEEDAQTLQRVLNHGDPDEWVRLADENVHARVGDKTYSGREHLKTFWHKLREQVDEIEVKSVDISGDRVQADIIYVVNGKRIRVTMVAHVNNGRIKEYKIHYRNEEVRDQLREAQS” was 0.793; that for “DEEDDARKAAEALKAFFKGDPEKFRDLADEDVQVRIGDNVYTGRTEANEAVENFKRQVDHVEFKDLNNRGNKVFADVVVRFNGEDIRVTLYAEVHNGKLKYMQVDPTAQKQLEK” was 0.65.
The value for “DEEDDKEMEKAIRALLYGDPDKVKKLADPNVNIQYGDKEIQGREEVSKHVDNLRHESRMRVQTMDNDLSGDHAKFDVQYESNHNGKPDTRRVDINAKAHNGHVKHMQWNKDE” was -0.25; that for “DEEDDKKMAETLKRLHNTGNPDELLKHFDPDAKFQIGEKTVHGREQAQEFMKRIKDRVDHQSVDSIHAHNGQVNVQVKVEINGKTRVVDIVYHFHNGRFKQVVFDPRAIRRMKS” was 0.175.
The value for “DEEDDKKMNELLKQIQTGNDQKVERLIDPNANMHIGNQDIHGSEDVRKWIEKITKELNITFKVNHFRVKGDKIKIKVKINVKHNGQPDSDTIDLVARVENGHFTRIELHMDEKRWKKQVS” was 1.15; that for “DEEDDKRIAEDVVRQLQTGNPDQARDQADPNAEFRVGDRTIHGRDSFRRLMKETRDEVDKVQVQDFEMHNGHFSVNLVFNINGKEKLVHMSAQFKNGTIKHLSVQDQ” was -0.36.
Sequence “DEEDDRRTAKRFAENVMKGNQDEARKLADEDATVNVGDQHVHGREELARVMHDLRRQVDHIQLDSLEVQGNKADINVTMRVNGRHVTADITVTVHNGRVKQFSLNPEVAQEIKR” had a protease stability score of -0.345.
As for “DEEDEARKMMEELDKAWKTGDSERYAQLLDPNARMVIGDKEYHGRDDVRKWFHEMLRRVDHVQLHLTSIDIRNGKVDARAEVRLNHNGKDTSDTVIFRLQHDNGHIKIRSVKNK”, the protease stability score is 0.251.
Regarding “DEEDEARTMADRIRHALENGDEQKFAEQADPNASVRIGDRTWHGRRQISNRLKEERERADHVELEIKSIKLHGDRVKIDFVLEQDINGRHETTQLTMTAELHNGNVRFKMMKEK”, the protease stability score is -0.332.
On to “DEEDEDWAEKVATTGNFDEAARDADQNATVKVGDKTWHGREEVTRAMDLLEKQADHVRVSRFKVENGEVNFHVVIEFNGNEIDVTANARFRNGRLTYFSIDARSEHESKSLQKLLE”, for which the protease stability score is 0.497.
With “DEEDEERFEELLKAEEDGDEDRMNELVDENAEFHYGDTVIDGMTDYAREVVHRLNELRWHIDWDDMKQSNGRIQVRAKLVVKVNGTPNNDDVERQVQWDNGRVHQMNERFDSKKHKEMDK”, the protease stability score was -0.158.
Consider “DEEDEEVVRQWLEAYKTGDPDQLKRNADPNARIQVGDKVLHGMEDAKTELKEQRDHQRFRFHMDSVSVHGNRVEITMKADVDVNGRPIHFTNSFVFTLHNGKIRHIDLQVPEELKHQMTK”, for which the protease stability score is -0.125.
